Reference: the domain aggregation screens of Martell et al. (2025)

Assay: soluble fraction after stress (log2 fold change); higher = more stays soluble; pooled small domains, quantitative proteomics
Details: stress: 50 degC
In short: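 Pooled custom libraries of small protein domains were measured in a high-throughput format, with quantitative proteomics as the read-out. Each library was stressed at 50°C. Aggregation propensity is given as the base-two logarithm of the fold change in how much of each protein stays soluble after the stress. Higher values mean a larger share of the protein remains in solution.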

Sequence | soluble fraction (log2)
HMSFGKKLRSLRQEKKLSQVELSKKLNVTSQALSQYELGKRIPDAEMIIRIADFFDVSVDYLLDRT | 0.215
HMSFGWESLENKEGVADTDLHPSGWVRIEDSRIFVVSEGDFINKGSKVTVLTVDGNRVVVRELI | -0.522
HMSFNISPTKKLILELIMNGTAAVEAIAVKAGISKGMAYNHLRELRSMGYITDEGGYKITDSGRLAV | -0.414
HMSFNNHYEILQVQPSADREVIEAAAKALLKKHHPDLGGRNTITSHIVQAKKVLTDTSQRADFDARLRERL | -0.0959
HMSFNSQENKSVLWQFLLENNFFIGLSDKKFNKVKDIFEKNIQSISIVNDSISNKNKILIQKMMEELELL | -1.88
HMSFPDTYFKGNKVIGLSYNDLKKFLNNAGYSKFDEEVEEWGEKRVSIEDDMVDFYLEDDKVVSI | -0.233
HMSFPFLMPNLEGLQLDQVRVILEENGLEIGQENYQPDSKFGPGTIINHQPSVDTVVQTGQKVNLQISGTD | 0.112
HMSFSSLSNDILSEIQKDNNITYDELSEKLQKDRATIYRNMKKLVENGLLKRVGGRKSGHWEIIE | 0.189
HMSFVDFYGLFTTELQRLAELPVTADELIKNTGLHKSQLTDWLKRAEEDGVVKKLNRPVRYQVEKK | -0.987
HMSGAQIQQLLESRAPQPGMNPDMIVRRKTYMNNVFNALKGALLRVANGSSPEEVKTEVDAAIQVDPDKL | 0.0889
HMSGEVLTAVVPETASGERLDKVLPQIFPPYSRSQLQTWLKEGRVTLDREIPAARLAVIGGETLRLEVPSL | -0.145
HMSGFFVYPNPAKSNIIHFPNKKSFYIYDTSGRLLIEGKGKDFIDVSTLDRGVYLLKTFENDIVKIII | -1.25
HMSGGIVRLAVKPWGEVFVDGASRGITPPLKQLTLDAGVHRIEIRNPAGPSWTKDVDVVAGQPTTVSHRF | 0.0289
HMSGITDIITDGKATSRPVVVTDGGHIRVLSPYTSFAIYTLGGMSLPTESRLEPGIYIVVVDSNAVKVAV | -0.619
HMSGLGELTPRELEVLELMAQGLSNSQIAGRLFLSGAAVAKHVSSIFSKLGFEPGDENRRVRAILAFLNR | -0.422
HMSGLLTTSKLAQKHKMKTEPMLEKLTAAGYLEWRDDKHSLTEQGKKAGGQFKTGRFGAYFLWPEDLV | -0.259
HMSGPDGLTEREIEVLRLLASGLSNRAIGERLYISTNTAANHVRSILLKTGAANRTQAAMYAADHEML | -1.37
HMSGPFTELTPREREILSHLAEGQSNKVIARHLQISDGTVKLHVKAILRKLEVHSRVEAAVMAVEHGV | -1.96
HMSGPMVPNVVGLSEEMARALLSDYSITIKHAHDGVIPKDRVASQLPLATTHAKVGSSVVLTIS | -0.354
HMSGQLTEEQVKQIVTTAVKNSSGSTLTAAEVSRIVSTAVANNLTADQVKTVVNNALAGITTDISTLKA | 0.0898
HMSGSFDVTLDYLNSLRNLYPAIDVEQEFRKMYAWLDSNPKNRKTERGIKRFITGWLGRAQDKAP | -1.12
HMSGSLLQTRQRLQALTDLGHYKGDLAAAWGPEAIEALKRAQAALGITVDGKWGPETEDAIQVALQAQT | 0.0305
HMSGSPREQAESEYRKAIAAVNQGRVSEATESLRAALRLDAFQVAARQLLVKLLLEAKNQDEAIQVLR | -0.463
HMSGTMYATAEVNVRSTYSSDGTIYGTLSKGTAVEITGTTDNGWVRVKYNGTTAYVYADYLSWKAP | -0.671
HMSGYAIVNNQPGRTLNLRNSPSQSNNIIGQIPSGTRLQLISRGETWSEVIFQTTRGFVMSSFLRFET | -0.809

Sequence | soluble fraction (log2)
HMSHGNAALTPRQRLRLARLVVDDQWSVSAAAEFFRVSYPTAAKWARRYVELGPAGMADRSS | -1.42
HMSHRVGDVVELTAVRMNDQGVFLDAGTGNTSDDILLHKHQMTSPVSVGDKVKVQLYLDAKNRITASMKL | -0.000204
HMSIEIIEITSNSSPKNLSEIIDIDATQIVADLMGLGIMKAIDTPLENSEIEQLLEKYNLIAEFVE | -1.47
HMSILEIFGRNVQKYRKEQRLSQEKLAEYAGLHRTYIGMIERAEKNITLVNIEKIAKALNINLTKLLE | -3.14
HMSILTELDIGDKVEVVAGPFKGIQANITRIEPVRKEVTVILLDAPYQLPVTVDADYLKIIQKS | -0.155
HMSINISFEPADHLGKDVIFIRFPYDNEWIQRVRKLKGAKWSQSQRAWHVPDTEHYRTLFQLPQKI | -2.6
HMSIQDLMNSKDLSGFKVEMLSNEDIVKYKSMLQSSGFSESQAEQLALQRGLPTSELIKLRTRISDVAVT | 0.0344
HMSIQELMNSKDLSSFKVEMLSDEDIAKYKGLLQNSGLTEAQAEQMALQRGLPSSELLKLKARLSGI | 0.128
HMSIQREIILEVIKNNRTHPTAEEIYILVTKKEPKISRSTVYRNINILVEKGIIEKITIATGPDRYDY | -1.4
HMSISDEDFAKLLDFVKEKWDAGELDNAEDIKAAISEGEKEFGVSLDESTRTTLASALQQLN | -0.134
HMSIYDAPIEDLKFSTRIFNSLKRADIHTVADLIAHSRDDLMKVRNLGATSLDELIEKLGTHGLQLADP | -0.254
HMSIYYQIYESLKKDLSNNLYKPGEKLPSENVLSKRFGVNRHTIRRSLQLLKNEGILFSKRGSGIIVHD | -2.32
HMSKDKEKRTREHVLGILKKYDKVMTDKAFTVFKKMIKDESILEMELIKLINFIGERKEIRSKDVLAVVTE | 0.281
HMSKEIQNILASLPSVDVLLKQIDPIYPHGKAKEATQQVVARLRESVVDGTRKTVIDQKEVIAMIHKQLEE | 0.143
HMSKETTYEVLSLKGDEWQTDTIYSDRDEAIEAARNLHGDPHIDGAKVISEVYDDKTGGSKETTIFNT | 0.226
HMSKHAIQNELEKIEGIGKQTADSLLKEFKSVKKLRTLPLSEIEKVIGKSKATIVFEALHKDK | 0.133
HMSKHATLLEALADLSVKLKPHSQLPSERALSEEYGVSRMTLRRAIDVLQARGYIYSVPSKGLFVSEP | -1.74
HMSKHATLLEALAELTVKLKPHTQLPSERQLSEDFGVSRMTLRRAIDVMQSRGYIYTVPSKGLYVSEP | -1.59
HMSKIRTFRVKTVAVDQAYQVLKDYSPIKISTESNAVIIDLDESKTPAEIAGYLEKNGIKVDNIEVIAESE | 0.179
HMSKISKENEQQVIQIVQTLLLNVQDKSLITTQILNEKINLAVSLDTKYKENLDRDYIIEELIRRYSVW | -1.12
HMSKKIVLPAAITVKKFSETLDMPLGTVISELMKNGILATINERIDFETASIIAQDLGYEVSEEV | 0.173
HMSKKQEQALQSREKLLDAATALFAEHGYRDTSVQAIGEKAGVSRGSIFWHFGSKEGLLWAVVERAFTA | 0.265
HMSKKTQKDEVVDLFLKTGNEPLHYKEISKKTGIIVHNVRRITGQNVVGKTDNPVFKRVSPGVYKLID | -0.546
HMSKLSVSSLSSPEVQNQLKAAGIDVNSRQYQVVMKDMMGALDGRAGYTTVSAIKNRMRQYNADGDY | 0.474
HMSKMVEMSQEKSREKVARVKIEIQKMLDRKERVTVSGLERATGFSNSFFYRNEEVNQAVKEAQLKQ | 0.0985

Sequence | soluble fraction (log2)
HMSKNIRQQFLDVLPKTFDRNQYLETAKKLSINAKTAEGYIKKFVEANLLDHPKHNHYINLKKVEEVETK | 0.229
HMSKNYYEILGVTPDVELSQLKAVYRRLVRKYHPDINPDGELIFKDITEAYEVLSDEKQRKQYDMINGF | -0.0246
HMSKPILSFVDPEKDPSHYVKRYITEETYKDWFSEHFPDYTLYEGIGITQEEYRNIVNELTKP | -0.493
HMSKPIYSELLREIRSGDVKELTLIPQRREVLVEYSDGRKATVSILANDQQVLRTAESAGVPLTVK | -0.0265
HMSKPVFQTHSVRSADSATVFDVLQTLLAGTPDARIAIDPKTNAIVAWARPETQEVIAKSIMEMEG | 0.0132
HMSKQIEVPDVTDMTVSDAIDVLQDKGFVVSDEQKEVASSEIEEGRVVRTSPAVGSKRKDGTVVTLYVSI | 0.045
HMSKTEEIAYTTFVKYLENKDIEEVYLGNNAKIKVILKDGREMITDNPRTADFKKDLLLHDIKVVEKT | 0.219
HMSKYGIAYSEVLEILKHIPIEDYNKIPRNEIELFETYADKDFTFNYDSSKTLEEQNVSNITKGIIIL | -0.103
HMSLEEQNGAKDRQVEAYELLLKAQRALDQEDTAGFQAAMKDLEPLSSQLDAQGQTLYHELLPFVS | -0.0812
HMSLGSNISRLRAEKHLSQGDLAEALDVSRQSVSKWETDGSVPDLDKLVKLSRIFGVTLDELVTGTP | 0.0174
HMSLIHEQSLKEIRIFINNLPESLRTAFTLREQDGLSYEEISKITDTPIGTVRSRIFRARESILEHINEEL | -1.89
HMSLLTPLEEARIVIEELIIPQKLTLDLLPQNSQIRKLQHEIINHYRLKGISIGDGKNRRVRIYS | -0.133
HMSLMHEESLKNIRRFINSLPESLRTAFTLREQDGLSYEEIGVITETPIGTVRSRIFRAREAILEHIKKEL | -2.24
HMSLMLYVEDVDTAFKKAIELGATEIRPVHDQFYGDRAGTLQDPFGHIWIIGTHKEDVSDEELNNRIGNI | -0.0131
HMSLPNNLIEQLQDPEPKARRRAVRRLAATRDPSAIPLLRNVYLQDGDDRVRDAAEAALVQFRAMQHN | 0.0586
HMSLPTYVQISEAIARRITAGQWLDGERLPPERTMAAEFGVAVGTLRKALSRLQDQKLLRRLQGSGNYINI | -1.57
HMSLREKNKARTRTAILNAARDLAKQGQWDAITTRQIADAAGVSYQTLYNYYPSKASILVEMLL | -1.45
HMSLSDDIAQTLRQLGFDRDVSETLANDVLPAMPTRQDVIDLLGTLGIEKHVAADFANFVVLN | -0.723
HMSLSEYLSAPVLEGQRNHALFSAVMQAREQGWDEWQIRTTIGAKAEADGLRHAEIAATIRSAMSREITP | -0.121
HMSLSIKINHESVGLRLDQFLQEHYYKQQSRSYVQHAIKEGYILVNGQSVKNGYMLKLDDLIELEAI | -1.59
HMSLSNMIGKNIQWTHVTKTKDAEGNPKTNSETFAGNVRGVKVLNGKPMVVAQDAKGKLHEVEVSEIEAIA | 0.234
HMSLTEDELFHALTIYANREGINIGATELKYLLTHYARNLGKLIELINQVSQAATMQKKPITIPLIKHS | -0.428
HMSLTGFYNLTFKQADRLSVIDEAGEEVYKQAIAMGSTTKTIDLSALNAGVYFIRIYNGEVIAQEKIVLN | -1.25
HMSLTYTGKFILNHNNIDQSSFNINIYLVNKQTIIQITKPFYGNVLNIKFNEENDLIISPKQFS | -0.146
HMSMDPYTVLGVNKSSTDSQIKNAYKNLAKQHHPDRGGNEAKFKEISTAYEQIKTAEKRQQYDMSQQF | 0.383
